Read-outs that look alike come from different tables or passages of the source.

The target in test [1] is T1, human [1-305]-mouse chimeric EL (human; mouse, UniProt Q9WVG5 306-500).
T1 sequence: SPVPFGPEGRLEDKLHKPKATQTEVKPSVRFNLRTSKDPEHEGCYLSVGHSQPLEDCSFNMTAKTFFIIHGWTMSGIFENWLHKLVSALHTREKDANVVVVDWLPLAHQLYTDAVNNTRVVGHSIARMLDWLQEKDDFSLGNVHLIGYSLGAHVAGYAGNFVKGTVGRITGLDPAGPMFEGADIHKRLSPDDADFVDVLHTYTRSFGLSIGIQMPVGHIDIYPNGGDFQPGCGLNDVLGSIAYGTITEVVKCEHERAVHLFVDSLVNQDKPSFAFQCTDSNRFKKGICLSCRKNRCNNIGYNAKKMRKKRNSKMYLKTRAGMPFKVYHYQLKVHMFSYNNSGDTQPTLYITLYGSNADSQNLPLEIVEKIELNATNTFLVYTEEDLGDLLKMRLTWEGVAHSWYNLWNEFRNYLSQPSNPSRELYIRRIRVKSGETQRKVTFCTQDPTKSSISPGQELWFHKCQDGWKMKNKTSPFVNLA
As to the kind of experiment: cell-based or functional assay.

Test [2] deals with baboon EL (baboon). As to the kind of experiment: cell-based or functional assay.
The target of test [3] is T2, mouse EL (mouse, UniProt Q9WVG5 21-500).
T2 sequence (looked up): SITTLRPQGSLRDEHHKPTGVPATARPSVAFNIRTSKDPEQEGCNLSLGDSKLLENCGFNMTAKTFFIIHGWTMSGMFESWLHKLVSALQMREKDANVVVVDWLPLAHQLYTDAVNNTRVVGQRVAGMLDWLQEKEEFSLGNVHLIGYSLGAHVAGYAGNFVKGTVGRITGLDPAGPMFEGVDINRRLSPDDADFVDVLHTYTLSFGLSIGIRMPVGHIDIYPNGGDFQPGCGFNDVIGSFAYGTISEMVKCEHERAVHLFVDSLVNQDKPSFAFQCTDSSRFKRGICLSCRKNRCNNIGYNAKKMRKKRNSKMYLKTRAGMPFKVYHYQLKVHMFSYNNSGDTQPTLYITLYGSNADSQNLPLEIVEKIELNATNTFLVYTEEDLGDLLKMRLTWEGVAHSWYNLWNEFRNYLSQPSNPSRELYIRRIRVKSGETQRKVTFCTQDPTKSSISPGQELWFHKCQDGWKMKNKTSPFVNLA
As to the kind of experiment: cell-based or functional assay.

A further test deals with rabbit EL (rabbit). As to the kind of experiment: cell-based or functional assay.
In test [4] the target is T1, human [1-305]-mouse chimeric EL. As to the kind of experiment: ELISA: antibody captured on anti-mouse IgG-Fc plate, EL heparin extract added, detection with biotin anti-C2-tag antibody and HRP-streptavidin, A450. Background: An ELISA detects its analyte on a solid surface through an enzyme-linked reagent.
The target in test [5] is T3, baboon EL (baboon).
T3 construct: Heparin extract
The test is described as above.

A further test addresses T4, Chimeric EL [187-500] (mouse;human).
T4 construct: construct not described further; Used as heparin extract and detected through anti-C2-tag antibody; also called human (187-500) mouse chimera EL
The test is described as above.

For test [6], the target named is T1, human [1-305]-mouse chimeric EL. In words: Biacore (as for the other anti-EL antibodies). Background: SPR reads the build-up and loss of mass on a sensor chip optically.
Test [7] addresses T3, baboon EL. As to the kind of experiment: Biacore (as for the other anti-EL antibodies).
The target of test [8] is T2, mouse EL. In words: Biacore (as for the other anti-EL antibodies).
In test [9] the target is T3, baboon EL. In words: Biacore; EL captured by anti-C2-tag Ab; bivalent fit. On the procedure: (§1) The binding affinities of anti-EL antibodies were measured using Biacore. […] Then, anti-EL humanized antibodies were added and the binding affinities were calculated by bivalent fitting of BIAevaluation software.
Test [10] has as its target T2, mouse EL. Described as above. On the procedure:
as §1

The target in test [11] is T3, baboon EL. As to the kind of experiment: cell-based or functional assay. This is another data set of the same source.
Test [12] has as its target T2, mouse EL. In words: cell-based or functional assay. This is another data set of the same source.

B1: 16F6 (antibody, V domains shown)
VH: QVQLQQSGAELMKPGASVKISCKATGYTFSTYWIAWVKQRPGHGLEWIGEILPGSAKTKYNKKFKGKATFTADTSSNTAYMQLSSLTSEDSAVYYCAVYDYGADYWGQGTSVTVSS
VL: DIVMTQSHKFMSTSVGDRVSITCKASQDVYTAVAWYQQKPGQSPKLLIYSASYRFTGVPDRFTGSGAGTEFTFTINSVQAEDLAVYYCQQHYSIPRTFGGGTKLEIK
notes: mouse IgG1 raised in EL knock-out mice; not tied one by one
Regarding B1, the “Neutralizing activity IC50” value is 4 nM in test [1], 2.8 nM with baboon EL [2], 2.5 nM in the test with mouse EL [3] and 2.3 nM with rabbit EL. For the same molecule, the “EC50 (read off the curve)” value in [4] is approximately 0.002 µg/mL; with baboon EL [5] it was approximately 0.02 µg/mL; with Chimeric EL [187-500], approximately 0.02 µg/mL. The Kd in test [6] is 14 nM; in the test with baboon EL [7], 0.42 nM; with mouse EL [8] it was 0.68 nM. For the same molecule, the koff in [6] came to 0.004 s⁻¹; in the test with baboon EL [7], 0.0001 s⁻¹; in the test with mouse EL [8] it was 0.00015 s⁻¹. Moreover, the kon in test [6] amounted to 330000 M⁻¹ s⁻¹; with baboon EL [7], 240000 M⁻¹ s⁻¹; with mouse EL [8] it was 220000 M⁻¹ s⁻¹.

B2: h16F6-S1 (antibody, V domains shown)
VH: QVQLVQSGAEVKKPGASVKVSCKASGYTFTTYWIAWVRQAPGQGLEWMGEILPGSAKTKYNKKFKGRVTMTRDTSTSTVYMELSSLRSEDTAVYYCAVYDYGADYWGQGTTVTVSS
VL: DIQMTQSPSSLSASVGDRVTITCKASQDVYTAVAWYQQKPGKSPKLLIYSASYRFTGVPSRFSGSGSGTDFTLTISSLQPEDFATYYCQQHYSIPRTFGGGTKVEIK
notes: humanized
On to B2, for which, in the test with baboon EL [9], the Kd is 0.57 nM, the koff was 0.00074 s⁻¹ and the kon came to 1.3e+06 M⁻¹ s⁻¹. In the test with mouse EL [10], this molecule registered a Kd of 0.16 nM, a koff of 0.00019 s⁻¹ and a kon of 1.2e+06 M⁻¹ s⁻¹. Moreover, the “Neutralizing activity IC50” value in the test with baboon EL [11] is 2.6 nM. In addition, the “Neutralizing activity IC50” value with mouse EL [12] came to 3.1 nM.

In general, EC50 (read off the curve) refers to the concentration at which the effect is half-maximal. One may read the koff as a measure of how fast the partners let go of each other. A higher koff goes with fast dissociation. The kon is a measure of how fast the partners come together. A higher kon goes with fast association.
